Data published in patent US20250171532A1 (NB HEALTH LABORATORY, published 2025).

T1: human LPA3 with FLAG tag (human LPA3 gene transfected cell) (human, UniProt Q9UBY5 1-353)
T1 construct: also called EDG7; not shown: FLAG tag added at the 5' terminal of the gene
T1 sequence: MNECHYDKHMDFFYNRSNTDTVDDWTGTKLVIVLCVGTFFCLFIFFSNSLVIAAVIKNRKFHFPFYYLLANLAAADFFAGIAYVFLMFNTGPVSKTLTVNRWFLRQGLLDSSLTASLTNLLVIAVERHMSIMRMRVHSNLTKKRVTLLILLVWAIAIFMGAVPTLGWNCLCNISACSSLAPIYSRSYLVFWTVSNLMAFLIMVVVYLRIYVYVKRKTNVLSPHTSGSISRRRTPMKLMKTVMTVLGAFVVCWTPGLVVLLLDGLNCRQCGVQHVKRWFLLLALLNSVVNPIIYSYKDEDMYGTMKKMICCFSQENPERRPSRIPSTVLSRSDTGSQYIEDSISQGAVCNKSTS

T2: mouse LPA3 with FLAG tag (mouse LPA3 gene transfected cell) (mouse, UniProt Q9EQ31 1-354)
T2 construct: not shown: FLAG tag added at the 5' terminal of the gene
T2 sequence: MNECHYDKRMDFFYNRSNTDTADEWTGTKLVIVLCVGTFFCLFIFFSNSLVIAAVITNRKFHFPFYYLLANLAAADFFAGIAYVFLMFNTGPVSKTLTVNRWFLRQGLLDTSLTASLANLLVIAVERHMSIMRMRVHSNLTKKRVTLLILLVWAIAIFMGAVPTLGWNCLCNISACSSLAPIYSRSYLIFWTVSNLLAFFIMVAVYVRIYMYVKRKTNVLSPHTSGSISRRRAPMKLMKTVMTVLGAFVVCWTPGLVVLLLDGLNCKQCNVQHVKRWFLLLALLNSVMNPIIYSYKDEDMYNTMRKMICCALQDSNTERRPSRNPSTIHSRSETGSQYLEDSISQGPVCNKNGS


Key:
[1] = target: T3, human LPA1 (human, UniProt Q92633 1-364); test: cell-based or functional assay
[2] = target: T4, mouse LPA1 (mouse, UniProt P61793 1-364); test: cell-based or functional assay
[3] = target: T3, human LPA1; test: cell-based or functional assay; remark: listed apart in the source
[4] = target: T4, mouse LPA1; test: cell-based or functional assay; remark: listed apart in the source
[5] = target: T5, human LPA2 with FLAG tag (human LPA2 gene transfected cell) (human, UniProt Q9HBW0 1-348); test: flow cytometry, transfected HEK293FT cells, histogram shift
T5 construct: also called EDG4; not shown: FLAG tag added at the 5' terminal of the gene
Method: (§1) BTEK293FT cell was transfected with 10 μg of an expression vector carrying each synthetic gene using Lipofectamine 2000, to prepare a human LPA1 gene transfected cell, a mouse LPA1 gene transfected cell, a human LPA2 gene transfected cell, a mouse LPA2 gene transfected cell, a human LPA3 gene transfected cell, and a mouse LPA3 gene transfected cell.
(§2) The next day, the cells were washed with PBS, then detached from the cell culture dishes by an enzyme-free cell dissociation buffer (Thermo Fisher Scientific, Inc.), then washed with PBS, and then collected by centrifugation. Goat serum (Thermo Fisher Scientific, Inc.) was diluted by 2 times in FACS buffer (PBS containing 1% o of FBS), into which the cells were suspended at 1×10⁷ cells/mL. This suspension was allowed to stand at 4° C. for 30 minutes to block the cells. The cells were collected by centrifugation and suspended in FACS buffer at 4×10⁶ cells/mL, and this suspension was dispensed into a V-bottom 96-well plate (Thermo Fisher Scientific, Inc.) at 25 μL (1×10⁵ cells)/well.
(§3) The cells were collected by centrifugation and washed with 120 μL of FACS buffer. This washing operation was repeated twice. To the cell sediment, 25 μL each of Goat Anti-Mouse IgG H&L (DyLight 650) (Abcam) that was a secondary antibody diluted by 500 times in FACS buffer was dispensed, then suspended, and then allowed to stand at 4° C. for 1 hour. The cells were washed twice, then suspended in 50 μL of FACS buffer, and the whole content thereof was transferred to a V-bottom 96-well plate (Greiner), to measure the binding of antibodies to the cells using a flow cytometer (Agilent Novocyte).

[6] = target: T1, human LPA3 with FLAG tag (human LPA3 …); test: as above
Method: as §1, §2, §3

[7] = target: T6, mouse LPA2 with FLAG tag (mouse LPA2 gene transfected cell) (mouse, UniProt Q9JL06 1-348); test: as above
T6 construct: not shown: FLAG tag added at the 5' terminal of the gene
Method: as §1, §2, §3

[8] = target: T2, mouse LPA3 with FLAG tag (mouse LPA3 …); test: as above
Method: as §1, §2, §3

[9] = target: T3, human LPA1; test: flow cytometry, human LPA1-stably expressing CHO cells, median fluorescence intensity
Description: (§4) The human LPA1-stably expressing CHO cell and the mouse LPA1-stably expressing CHO cell were washed with PBS, then detached from the cell culture dishes by an enzyme-free cell dissociation buffer (Thermo Fisher Scientific, Inc.), then washed with PBS, and then collected by centrifugation. The human LPA1-stably expressing CHO cell and the mouse LPA1-stably expressing CHO cell were suspended at 1×10⁷ cells/mL in Fc Block (Sci-Tech Biosciences, Inc.) diluted by 500 times in FACS buffer, and then allowed to stand at 4° C. for 30 minutes to block the cells. The cells were collected by centrifugation and suspended in FACS buffer at 4×10⁶ cells/mL, and this suspension was dispensed into a V-bottom 96-well plate (Thermo Fisher Scientific, Inc.) at 25 μL (1×10⁵ cells)/well. As primary antibodies, the eleven types of LPA1 antibodies produced and purified by the method described above and a mouse isotype control antibody (Fujifilm Wako Pure Chemicals Corporation) were diluted stepwise, which was added to each well at 25 μL/well, and allowed to stand at 4° C. for 1 hour. The cells were collected by centrifugation and washed with 120 μL of FACS buffer. This washing operation was repeated twice. To the cell sediment, 25 μL each of Goat Anti-Mouse IgG H&L (DyLight 650) (Abcam) that was a secondary antibody diluted by 500 times in FACS buffer was dispensed, then suspended, and then allowed to stand at 4° C. for 1 hour. The cells were washed twice, then suspended in 50 μL of FACS buffer, and the binding of antibodies to the cells was measured using a flow cytometer (Agilent Novocyte).
(§5) A graph was created, in which a concentration of the antibody was plotted on the […] axis, and a median fluorescence intensity of the flow cytometer histogram was plotted on the horizontal axis. All of the eleven antibodies were confirmed to dose-dependently bind to the human LPA1-stably expressing CHO cell and the mouse LPA1-stably expressing CHO cell. The results of the binding of each antibody to the human LPA1-stably expressing CHO cell are presented in FIG. 2A to FIG. 2K, and the results of the binding of each antibody to the mouse LPA1-stably expressing CHO cell are presented in FIG. 3A to FIG. 3K.

[10] = target: T4, mouse LPA1; test: flow cytometry, mouse LPA1-stably expressing CHO cells, median fluorescence intensity
Description: as §4, §5

T5 sequence (Q9HBW0 other isoform, or with tags, fused parts or gaps): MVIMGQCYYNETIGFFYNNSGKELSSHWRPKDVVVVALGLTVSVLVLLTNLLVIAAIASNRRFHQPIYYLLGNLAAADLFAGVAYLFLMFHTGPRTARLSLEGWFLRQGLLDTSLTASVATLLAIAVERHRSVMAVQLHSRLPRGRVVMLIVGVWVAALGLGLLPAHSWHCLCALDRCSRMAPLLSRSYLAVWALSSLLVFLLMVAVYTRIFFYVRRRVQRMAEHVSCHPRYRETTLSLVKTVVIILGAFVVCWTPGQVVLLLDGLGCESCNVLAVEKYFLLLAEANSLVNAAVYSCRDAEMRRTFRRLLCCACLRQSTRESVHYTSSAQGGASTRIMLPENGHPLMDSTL
T6 sequence (Q9JL06 whole entry): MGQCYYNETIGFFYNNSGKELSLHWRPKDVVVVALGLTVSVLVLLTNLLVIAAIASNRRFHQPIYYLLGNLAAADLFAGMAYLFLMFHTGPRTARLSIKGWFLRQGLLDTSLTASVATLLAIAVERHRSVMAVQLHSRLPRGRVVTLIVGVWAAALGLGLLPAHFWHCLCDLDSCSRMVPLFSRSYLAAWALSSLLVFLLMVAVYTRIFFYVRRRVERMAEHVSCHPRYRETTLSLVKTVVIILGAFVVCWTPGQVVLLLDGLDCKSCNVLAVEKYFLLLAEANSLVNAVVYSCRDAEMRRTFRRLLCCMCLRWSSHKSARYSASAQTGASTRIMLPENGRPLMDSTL
T4 sequence (P61793 whole entry): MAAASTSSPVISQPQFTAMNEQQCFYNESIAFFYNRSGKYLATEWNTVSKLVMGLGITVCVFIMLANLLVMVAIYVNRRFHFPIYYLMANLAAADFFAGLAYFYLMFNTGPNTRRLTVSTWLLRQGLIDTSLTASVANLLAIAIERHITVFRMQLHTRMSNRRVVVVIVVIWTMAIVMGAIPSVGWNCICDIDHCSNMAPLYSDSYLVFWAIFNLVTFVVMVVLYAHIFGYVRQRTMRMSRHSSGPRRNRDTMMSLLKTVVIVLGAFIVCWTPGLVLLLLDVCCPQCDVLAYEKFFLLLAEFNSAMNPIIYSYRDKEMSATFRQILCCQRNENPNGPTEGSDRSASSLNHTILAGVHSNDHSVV
T3 sequence (Q92633 whole entry): as the sequence (P61793 whole entry) above, with A4I, S8I, Q22P, Y40H, V61I, D193E, H194N, V269I, N331S, N335T counted along it

Binder | Intracellular cAMP signaling inhibition (Inhibition rate %/100 nM) [1] [%] | Intracellular cAMP signaling inhibition (Inhibition rate %/100 nM) [2] [%] | Intracellular cAMP signaling inhibition IC50 [3] [nM] | Intracellular cAMP signaling inhibition IC50 [4] [nM] | EC50 [9] [nM] | EC50 [10] [nM] | binding result [5] | binding result [6] | binding result [7] | binding result [8]
210309-1-G (antibody, mouse IgG1, V domains shown, Mouse monoclonal from human LPA1 immunization) VH: QVQLQQSGAELARPGASMKLSCRASGYTFTSYGISWVKQRTGQGLEWIGEIYPRSGVTYYNEKFKGRATLTADKSSSTAFMELRSLTSEDSAVYFCARESISLRLGWYFDVWGTGTTVTVSS VL: DIQMTQSPASLSASVGDTVTITCRASENIYRFLAWYQQKQRKSPHLLVYNAKTLAEGVPSRFSGSGSGTQFSLKINSLQPEDFGSYYCQHHYGPPLTFGAGTKLELT | 34 | 36 | 40.9 | 197 | 1.8 | 2.4 | no binding (tested: 25 g/mL (so in the source)) | no binding (tested: 25 g/mL (so in the source)) | no binding (tested: 25 g/mL (so in the source)) | no binding (tested: 25 g/mL (so in the source))
211222-1-G (antibody, mouse IgG1, V domains shown, Mouse monoclonal from human LPA1 immunization) VH: QVQVQQSGAELARPGASVRLSCKASGYTFTSFGVNWVKQRTGQGLEWIGQIYPRTGTTYHNERFKGKATLTADKSSSTAYMELRSLTSEDSAVYFCAREGDRYSLAYWGQGTLVTVSA VL: DIQMTQSPASLSASVGETVTITCRASENIYRFLAWYQQKQGKSPQLLVYNAKTLVEGVPSRFSGSGSGTQFSLKINNLQPEDFGSYYCQHHYGIPLTFGAGTKLELK | 22 | 49 | 96.8 | 199 | 4.2 | 2.3 | no binding (tested: 25 g/mL (so in the source)) | no binding (tested: 25 g/mL (so in the source)) | no binding (tested: 25 g/mL (so in the source)) | no binding (tested: 25 g/mL (so in the source))
210309-2-D (antibody, mouse IgG1, V domains shown, Mouse monoclonal from human LPA1 immunization) VH: QVQLQQSGAELARPGASVKLSCKASGYTFTSYGISWVKQRTGQGLEWIGEIYPRSGNTYYNEKVKGKATLTADKSSSTAYMELRSLTSEDSAVYFCARESIFLRLGWYFDVWGTGTTVTVSS VL: DIQMTQSPASLSASVGETVTITCRASDNIYRFLAWYQQKQGKSPQLLVYNAKTLAEGVPSRFSGSGTGTQFSLKINSLQPEDFGIYYCQHHYGPPLTFGAGTKLELK | 51 | 53 | 18 | 163 | 1.8 | 2.1 | no binding (tested: 25 g/mL (so in the source)) | no binding (tested: 25 g/mL (so in the source)) | no binding (tested: 25 g/mL (so in the source)) | no binding (tested: 25 g/mL (so in the source))

The remaining binders from weak to strong by EC50 [9], led by results:

Intracellular cAMP signaling inhibition (Inhibition rate %/100 nM) [1] [%] | Intracellular cAMP signaling inhibition (Inhibition rate %/100 nM) [2] [%] | Intracellular cAMP signaling inhibition IC50 [3] [nM] | Intracellular cAMP signaling inhibition IC50 [4] [nM] | EC50 [9] [nM] | EC50 [10] [nM] | Binder | binding result [5] | binding result [6] | binding result [7] | binding result [8]
24 | 46 | 48.3 | 124 | 2 | 1.3 | 210420-4-E (antibody, mouse IgG1, V domains shown, Mouse monoclonal from mouse LPA1 immunization) VH: QLHLQQSGAELARPGASVRLSCKASGYTFASFGISWVKQRTGQGLEYIGEIYPRSGTTYFNEKFRGKATLSADKSSSTAYMELRSLTSEDSAVYFCAREGVRRYAMDYWGQGTSVTVSS VL: DIQVTQSPASLSASVGETVTITCRASGNIYSFLAWYQQKQGKSPQLLVYNAKTLAEGVPSRFSGSGSGTQFSLKISSLQPEDFGSYYCQHHYGIPLTFGAGTKLDLK | no binding (tested: 25 g/mL (so in the source)) | no binding (tested: 25 g/mL (so in the source)) | no binding (tested: 25 g/mL (so in the source)) | no binding (tested: 25 g/mL (so in the source))
44 | 50 | 33.1 | 114 | 1.9 | 1 | 210420-3-E (antibody, mouse IgG1, V domains shown, Mouse monoclonal from mouse LPA1 immunization) VH: QLQLQQSGAELARPGASVKLSCKASGYTFASFGISWVKQRAGQGLEYIGEIYPRSGTTYFNEKFRGKATLTADKSSSTAYMELRRLTSEDSAVYFCAREGVRRYAMDYWGQGTSVTVSS VL: DIQVTQSPASLSASVGETVTITCRASGNIYSFLAWYQQKQGKSPQLLVYNAKTLAEGVPSRFSGSGSGTQFSLKINSLQPEDFGSYYCQHHYGIPLTFGAGTKLDLK | no binding (tested: 25 g/mL (so in the source)) | no binding (tested: 25 g/mL (so in the source)) | no binding (tested: 25 g/mL (so in the source)) | no binding (tested: 25 g/mL (so in the source))
